test: soluble on expression in E. coli; label from the status in PepcDB or PDB records

Row | Sequence | soluble on expression in E. coli
1 | MSQNDLNKEKALVVFSGGQDSTTCLFYAKKHFKEVELVTFNYGQRHDKEIEVAKKIAKEQNLKHHILDMSLLSQLTPNALTQHELSIEDNDDGIPNTFVPARNLLFLSFAGALAYQIHAKHIITGVCETDFSGYPDCRDSFIKSMNVTLSLSMDKDFVIHTPLMWLDKAQTWALSDKLGVLDYIRHNTLTCYNGIIGDGCGECPACHLRARGLKHYLEHKGEE | not soluble
2 | MSLSSASSKRSVMTLFSNKDDIYCHQVKIVLAEKGVLYENAEVDLQALPEDLMELNPYGTVPTLVDRDLVLFNSRIIMEYLDERFPHPPLMQVYPVSRAKDRLLMLRIEQDWYPTLAKAENGTEKEKTSALKQLKEELLGIAPIFQQMPYFMNEEFGLVDCYVAPLLWKLKHLGVEFTGTGSKAIKAYMERVFTRDSFLQSVGEAAPKNLMDDKEGHHHHHH | soluble
3 | MSLKLIKGLNLLRPCSDTPFLENAFVVIDGDEFLSVGTTEPEGEFEEVLDCGGKFALPGLINAHHHLYSALAVGMPPPAKTPLNFTQILEEVWWKLDLALDHDATQASFESGLIDSLKAGTTTVIDHHCSPSFIEGSLSLLGDTGKKLGIATGLAFEVTDRNGQELFERSLQENLDAAEKHSQDQELAALLGLHASFTLSEESLKKVAEVHSKRSNWGIHTHLSEDRADEEDARNRGHASVVERLDHFGLINQSAMLIHGVHSLESDAELIQKHKAHLVHNPTSNANNRIGMLSNQAAERMKPGLGTDGMQSNMIREAKEGMLIRSSHMSAGDAGVDYQAILFDHNPRIASAVFGRSIGRVEPGYRADLAIYDYHPRTEVHSDNVFGHVFFGLGEPCDVMSGGLMRVQNHLLQGNDEQAAKQEAAEQSRKLWQKMQEGHHHHHH | soluble
4 | MATLIYVDKENGEPGTRVVAKDGLKLGSGPSIKALDGRSQVSTPRFGKTFDAPPALPKATRKALGTVNRATEKSVKTKGPLKQKQPSFSAKKMTEKTVKAKSSVPASDDAYPEIEKFFPFNPLDFESFDLPEEHQIAHLPLSGVPLMILDEERELEKLFQLGPPSPVKMPSPPWESNLLQSPSSILSTLDVELPPVCCDIDILEHHHHHH | not soluble
5 | MVRYYHIEMLACPECRNPRLILYVVREKRGAMPPQPERLKCRRWCYLFDRPASTVPLSTCVSSCVERDIEEGVLVCPACGRWYPIVEGIPVMMDDKYRDPERDREIASRLAGHVPEWVKLRAVAPVPLEPREAGEG | soluble
6 | MGSDKIHHHHHHMNNSEKMLVCLDQQDLDKADKYFKRALVQDDSETLLSLAAYLEGIGFFPQARQIYEQVKEEFPEVLINLAQIAFEDGLVEEAFRYLEEISEDSSIYVEALLVKADLYQAEGLSDVAREKLLEASHLSDKPIILFGLAELDMELELFNEAISYYAQLDNREIYELTGISTYQRIGIAYASLGKFEAAIEFLEKAVELEYDDQTVFELAALLFEREEYQKANLYFKQLDTINPDFEGYEYAYAQSLHAEHKIDDALAMTQKGLAKNDFDANLLFQASQYAYELHDEAGAEDYLLRAKEVADDSNELALRLSNLYLEQERFEEVVALFDEEVDNVLARWNKAKAYQALERDDEAIALYDELAGELAENPEFLADYVAVLRQLGRLDEAKEQASRYIQLVPDDLAMQEFLNEE | not soluble
7 | MSLSTYTTGELAKHVGVSVRTIQYYDQRGLLTPMTTAGGRREYTAQDIERLQLILVLKSMGLKLAAIKDILNSPNATDVLQLLLTEQVQRLRQDQAATTTQLKTVIAVQKALAVSGPFPLESIHDMDQLMTNQQREGHHHHHH | not soluble
8 | MFLNSLDLPGQPENSRIVVAMSGGVDSSVVAGLLKKEGYDVIGITLQLYDHGAATHRVGACCAGQDIEDARCVAETLGIPHYVLDYEERFREAVIDPFAASYAHGETPVPCIACNQTVKFADLLATARELDADALATGHYIRSRSHGAHRALFRPLDSDRDQSYFLFATTQEQIDYLRFPLGDLPKARVREMATEMGFVVANKHDSQDICFVPQGKYSDIITKLRPEAVNPGVIVHVDGQVLGKHSGIVHYTVGQRRGIGVATGEALYVVYLDVENARVIVGPREMLETHKLFLRDVNWLGDERLDNFPPDGIEMAVKVRSTRPPHLARLHYQEGVFSVDFLECENSVAPGQACVFYDGNSDGARVLGGGFVTHSERAAETEMMLKRVLCNLETTSAVASEFKTKVSYT | not soluble
9 | MGSSHHHHHHGKTIFVIVPTNEEQVAFLEALAKQDELNFDWQNPPTEPGQPVVILIPSDMVEWFLEMLKAKGIPFTVYVEEGGSENLYFQGGGGGGPFRYQISEYFERQRDGVHVELRRKAVKYYAEMERMHRRQALVNLESIQDDNAPHRLSAVLSVESIQAGHLDQEYNYWYAHERDAIRAEKLMMEIRELKAKMPADSA | not soluble
10 | MLKKLKNFILFSSIFSPIAFAISCSNTGVVKQEDVSVSQGQWDKSITFGVSEAWLNKKKGGEKVNKEVINTFLENFKKEFNKLKNANDKTKNFDDVDFKVTPIQDFTVLLNNLSTDNPELDFGINASGKLVEFLKNNPGIITPALETTTNSFVFDKEKDKFYVDGTDSDPLVKIAKEINKIFVETPYASWTDENHKWNGNVYQSVYDPTVQANFYRGMIWIKGNDETLAKIKKAWNDKDWNTFRNFGILHGKDNSSSKFKLEETILKNHFQNKFTTLNEDRSAHPNAYKQKSADTLGTLDDFHIAFSEEGSFAWTHNKSATKPFETKANEKMEALIVTNPIPYDVGVFRKSVNQLEQNLIVQTFINLAKNKQDTYGPLLGYNGYKKIDNFQKEIVEVYEKAIK | soluble
11 | MSLEPDNQTPLKILVTGASGFVGLRVLTQAQNIGYALVAQSRSQQPYSFEQVLLDITPNTDWERALVGVDCVVHCAARVHQMQETEADALKAYRDVNTQGTLNLAKQAVSAGVKRFIFLSSIKVNGEQTKAGSAFQHDDQHIPSDPYGLSKYEAEQQLLELAAETGLEVVIIRPPLVYGEGVKANFLSMMNWVKKQIPLPLGAVGNMRSLVYLDNLVDLILVCCQHPKAAGEIFLVSDNHDVSLTTLLRTIAQAMQIRPRLLPIPQTGLQWLLRLLGKPELGQRLCGNLQLDIAHTQKTLHWSPPVSFEQGIARTVNFYLSQSSKEGHHHHHH | soluble
12 | MKIVVAKNIGFCFGVERAIRTVEELLDEGKKVVTDGEIVHNKQVMEQLTKKGLKVSSEMTDGEVFVVRAHGIPKDRLEELKKIFPEVVDLTCPIVSQLFKTAQRYAKERKVIVFGKEDHPEMVALRGYAPAIVTKVPFKLEEKKVVFLSQTTSSLEEYKEFVAAMIRMNEFEEAVFLNTICPVTVNREREVEELSKICDLSIVVGGKHSSNTGKLFRIASKHSKTIWIESPDELPADVVKYGTVCVFSGTSTPNSLIENVVRKLKEMEGKRDGTI | soluble
13 | MRGSHHHHHHTDPALRANEFSILCRVLGSLYYRQPQDPLLVPLFTLIREGKLAANWPLEQDELLTRLQKSCDMTQVSADYNALFIGDECAVPPYRSAWVEGATEAEVRAFLSERGMPLADTPADHIGTLLLAASWLEDQSTEDESEALETLFSEYLLPWCGAFLGKVEAHATTPFWRTMAPLTRDAISAMWDELEEDSEEGLCGR | soluble
14 | MTSSNKILLVFLLFFCIQDVASENGLDVSALSGKSKKFFFDMTKQVMGVPSLKPENLAAQAFFRSFLDKYTKLDDKVKNDMTQHVPKATKLFDAAAKKYNIDPSSAFKMLSTFFETFKKGASSEMASKGLQMAGKLLGGKGSGGGGGLLGFLGTRR | not soluble
15 | SAKAVRIGAEGYKLKLDGAVQEIDGRSVVLVDVDSITPLMFGGSMKEKAKLLDAKFLRKYYEENKDFFFLSTREEKKMFVTLQLAREYAELVDDQFLRGFFEKALESAQKAF | soluble
16 | AHHHHHHGSGASPVIVPVRCFTCGKVIGDKYYEFKRRVEAGEDPEKVLDDLGLERYCCRRMLLSHVELIDDIMHYRVY | not soluble
17 | MKVNTWFGVLELDSNGKTLSSEVFPKDIRELALRSLSLRESRQNLPPEGFDLKTAALECGFTESLSEYYSLLHKVTLETVKLQVSQALTPDQRIIQAVEALDDINETTNSLSERLFEWYGGYFPESGLSGEELAVFISRYGSRENLPPEDPHYLKAKNSMGAKLEAADEVLLKGLAESVCSLYERRKQIEAYIESSMEILAPNLALLAGPMLGARLISIAGSLEKLAAFPSSTIQVIGASKALFKHLRSRAPSPKHGIIYSHPLINTSPWWVRGKVARALAAKLSLAARIDFYSAKRNPSLENELEEKIRKIRAENPRPPQKRQEIRAKPKKKRRKLEHHHHHH | soluble
